One protein from article PMC10821409, “The transport activity of the multidrug ABC transporter BmrA does not require a wide separation of the nucleotide-binding domains” (The Journal of Biological Chemistry, 2023) can be followed below.

This series deals with the molecule itself. In words: cryo-EM structure; detergent-purified protein (DDM/cholate), apo, inward-facing state; C2 symmetry.

B1: BmrA WT, homodimeric multidrug ABC transporter from Bacillus subtilis (natural protein)
chain: MPTKKQKSKSKLKPFFALVRRTNPSYGKLAFALALSVVTTLVSLLIPLLTKQLVDGFSMSNLSGTQIGLIALVFFVQAGLSAYATYALNYNGQKIISGLRELLWKKLIKLPVSYFDTNASGETVSRVTNDTMVVKELITTHISGFITGIISVIGSLTILFIMNWKLTLLVLVVVPLAALILVPIGRKMFSISRETQDETARFTGLLNQILPEIRLVKASNAEDVEYGRGKMGISSLFKLGVREAKVQSLVGPLISLVLMAALVAVIGYGGMQVSSGELTAGALVAFILYLFQIIMPMGQITTFFTQLQKSIGATERMIEILAEEEEDTVTGKQIENAHLPIQLDRVSFGYKPDQLILKEVSAVIEAGKVTAIVGPSGGGKTTLFKLLERFYSPTAGTIRLGDEPVDTYSLESWREHIGYVSQESPLMSGTIRENICYGLERDVTDAEIEKAAEMAYALNFIKELPNQFDTEVGERGIMLSGGQRQRIAIARALLRNPSILMLDEATSSLDSQSEKSVQQALEVLMEGRTTIVIAHRLSTVVDADQLLFVEKGEITGRGTHHELMASHGLYRDFAEQQLKMNADLENKAG
notes: BmrA, multidrug ABC transporter, Bacillus subtilis; hexa histidine-tagged pET23 BmrA; Residues 578 onward could not be modelled in PDB 8QOE; also called WT BmrA; WT protein; source: E. coli C41(DE3), purified in DDM/cholate (Ni-NTA)
As to B1, the binding result is on record as “binds”.
